The source of these data is the DeepSol protein solubility set.

The nature of this data set: soluble on expression in E. coli; label from the status in PepcDB or PDB records.
For “AAKGTAETKQEKSFVDWLLGKITKEDQFYETDPILRGGDVKSSGSTSGKKGGTTSGKKGTVSIPSKKKNGNGGVFGGLFAKKD”, the “soluble on expression in E. coli” value is “soluble”.

With “AATITTSGTVLPTVTVAGHRAAIDEAPPLYKGGQVGSGARMGVLGNTAVMDTPFSVTSYSAQVIENNQARSVADIAAMDPSVRMSSARSNINEDLTMRGFSVSSADFALNGLFGLTPYWRAPLESIERVEVIKGPSAALFGMAPGSSVGGVVNLVPKRAGDTP”, the “soluble on expression in E. coli” value was “not soluble”. For “AATSRTERIWPGGVIPYVIGGNFTGSQRAMFKQAMRHWEKHTCVTFIERSDEESYIVFTYRPCGCCSYVGRRGNGPQAISIGKNCDKFGIVVHELGHVIGFWHEHTRPDRDNHVTIIRENIQPGQEYNFLKMEPGEVNSLGERYDFDSIMHYARNTFSRGMFLDTILPSRDDNGIRPAIGQRTRLSKGDIAQARKLYRCPA” the value was “soluble”; for “ADPEKSYAEGPGLDGGECFQPSKFKIHAVDPDGVHRTDGGDGFVVTIEGPAPVDPVMVDNGDGTYDVEFEPKEAGDYVINLTLDGDNVNGFPKTVTVKPA”, “soluble”; for “ADPVMLEVFNNLFMSIAEQMGYRLQNTAYSVNIKERLDFSCAIFDAAGNLIANAPHMPVHLGSMGESIKTVMRANASRMRPGDAYVVNDPYHGGTHLPDVTVITPVFDRAGRDILFFVGSRGHHADIGGTTPGSMPPDSRTVEDEGVLFTNFQLVGNGEFRDREAREILASGRWPARNPDQNIADLHAQIAANEKGVQELLRMCDHFGLDVVRAYMGHVQDNAEEAVRRVISVLKDGRYTYRLDNGAVIEVAVRVDRQARSAVVDFTGTSGQLENNFNAPGAIAVAAVLYVFRTLVDDEIPLNAGCLKPLEIIIPEGSMLRPNPPASVVAGNVETSMCIVNALYGALGVLAASQGTMNNFTFGNARYQYYETISGGTGAGPLRIDAAGPADAGFAGTSVVQAHMTNSRLTDPEVLELRFPVRLESYEIRHGSGGAGRYRGGDGGVRRVRFLEPMTAAILSNNRRHVPFGLAGGGAGAMGRNYVERADGRVEPLGPQDSAELAAGDVFVVETPGGGDYGPA”, “not soluble”. For “ADVYDIGRGAVMYVAGGKVSWAPRGGNEVKFEPVPKELKLVANRLHTSFPPHHVVDMSKFTFITPGSGVSMRVEYQYGCLPADTVPEGNCWWRLLDSLPPEVQYKEIRHANQFGYQTKHGVPGKYLQRRLQVNGLRAVTDTHGPIVIQYFSVKESWIRHLKLVEEPSLPGFEDLLRIRVEPNTSPLAGKDEKIFRFGSHKWYG” the value was “soluble”; for “AEEGAVAVCVRVRPLNSREESLGETAQVYWKTDNNVIYQVDGSKSFNFDRVFHGNETTKNVYEEIAAPIIDSAIQGYNGTIFAYGQTASGKTYTMMGSEDHLGVIPRAIHDIFQKIKKFPDREFLLRVSYMEIYNETITDLLCGTQKMKPLIIREDVNRNVYVADLTEEVVYTSEMALKWITKGEKSRHYGETKMNQRSSRSHTIFRMILESREKGEPSNCEGSVKVSHLNLVDLAGSERAAQTGAAGVRLKEGCNINRSLFILGQVIKKLSDGQVGGFINYRDSKLTRILQNSLGGNPKTRIICTITPVSFDETLTALQFASTAKYMKNTPYVNEVSTDEALEHHHHHH”, “soluble”; for “AEIKAVSAARLLDVASGKYVDNPLVIVTDGRITSIGKKGDAVPAGATAVDLPGVTLLPGLIDMHVHLDSLAEVGGYNSLEYSDRFWSVVQTANAKKTLEAGFTTVRNVGAADYDDVGLREAIDAGYVPGPRIVTAAISFGATGGHCDSTFFPPSMDQKNPFNSDSPDEARKAVRTLKKYGAQVIKICATGGVFSRGNEPGQQQLTYEEMKAVVDEAHMAGIKVAAHAHGASGIREAVRAGVDTIEHASLVDDEGIKLAVQKGAYFSMDIYNTDYTQAEGKKNGVLEDNLRKDRDIGELQRENFRKALKAGVKMVYGTDAGIYPHGDNAKQFAVMVRYGATPLQAIQSATLTAAEALGRSKDVGQVAVGRYGDMIAVAGDPLADVTTLEKPVFVMKGGAVVKAP”, “soluble”. For “AERLPDFLAKIQPSEIFPGADRYGKPEGKPMVARVYKGDEQLGLVYITTDAVNTRGYSSKPIDTLMVLANDGTIAGAKLVDHHEPIMLIGIPHLPAPGRAIRSNWLPAYIKPNFTLTNRLRLKGLPTVPQPSKATGAGVP” the value was “not soluble”. For “AGGLKYDLDLNLSHYKSVLKSMANPDYLYEYGALRTYVGGEIGEFWVYQTAGIFQNQAEVDEWNTAHGYKDQNGNWQPLQPVAKPGDIRFIDQNGDGMLDTNDRVKVGSGTPKVSLGFNINLTYKDFDLVANFYGDFGAKRYNYTKYQLERMDHVFNYGKNALNAWTPENPDTDIPRAVSGDPNKNSRTSTRFVENGDYLRLNNLQIGYNLPVKYCKKMGLSNLRIYVGATRLFTITNYKGYDPSTGSSVGQMGYDYAAIPLSRDFMMGLKFGF”, the “soluble on expression in E. coli” value is “not soluble”. For “AGHRGQCVGRHREVVAIDNSKATNPHAADSALAGFSSVVWVAGGQLKGAEIDELIVRHAGRIKAVALLGVDRDVIEDSVRTHIPGIPVLSVSETDPRRAMDEAVAWSVSQAEAGDAIVLAPAAASLDMYTGMGQRGDMFATAI” the value was “not soluble”. For “AGQGESGNPPATDKERFIASLMARMSNAEKIGQLRLVSVGADHPKEALMADIRAGKVGAIFNTVTRPDIRAMQDQVRHSRLKIPLFHAYDVAHGHRTIFPISLGLAASWDPEVVARSARISALEASADGLDMSFSPMVDITRDARWGRVSEGFGEDTYLTSLLSGVMVRAYQGSNLAAPDSIMAAVKHFALYGAAEGGRDYNTVDMSLPRMFQDYLPPYKAAVDAGAGAVMVSLNTINGVPATANRWLLTDLLRQQWGFKGLTISDHGAVKELIKHGLAGNERDATRLAIQAGVDMNMNDDLYSTWLPKLLAAGEIDQADIDRACRDVLAAKYDLGLFADPYRRLGKPDDPPFDTNAESRLHRQAAREVAREGLVLLKNRDGLLPLKKQGRIAVIGPLAKSQRDVIGSWSAAGVPRQAVTVYQGLANAVGERATLLYAKGANVSGDQAILDYLNSYNPEVEVDPRSAEAMLEEALRTARDADLVVAVVGESQGMAHEASSRTDLRIPASQRRLLKALKATGKPLVLVLMNGRPLSLGWEQENADAILETWFSGTEGGNAIADVLFGEHNPSGKLTMSFPRSVGQVPVYYNHLNTGRPMDHDNPGKYTSRYFDEANGPLYPFGYGLSYTEFSLSPLRLSSERLARGATLEARVTLSNSGKRAGATVVQLYLQDPVASLSRPVKELRGFRKVMLEPGESREIVFRLGEADLKFYDSQLRHTAEPGEFKVFVGLDSAQTESRSF” the value was “not soluble”; for “AHHHHHHASAKWVCKICGYIYDEDAGDPDNGISPGTKFEELPDDWVCPICGAPKSEFEKLEDGSFKLYSLAREFARDLLFEINGDVVTLSIKGVLLANTSSTSSNFSIFEVSENEFILAIQTSGYVVYLGIEAEEEIEEEVYPSLVRIIISEVMPIINNLVQVAKELSYKGADILLDDNMSSSLREAMYNLLLKHKKGKSPYEQVEVA”, “soluble”. For “AHHHHHHASAKWVCKICGYIYDEDAGDPDNGISPGTKFEELPDDWVCPICGAPKSEFEKLEDGSRFIDANVFIYAILKPKRELNEKELKIKRVSKEIFNRINGGEEVVTTVVHLSEVANVLEDAANLSFAISFLKDVLIKGNVIVEEVSDRDYMESVLLAEEKGVSINDALAYILMKRKGIEEIYTFDRHFENLDVRIVNS” the value was “soluble”; for “AHHHHHHGSFRLRDFEYYNRTVFLRVDLNSPMSNGKIISDARFRAVLPTIKYLIESGAKVVVGTHQGKPYSEEYSTTEEHARILSELLNMHVEYVEDIFGKYARERIKAMKPGEVIVLENLRFSAEEVKNATIEECEKTFFVRKLSQVIDLVVNDAFAAAHRSQPSLVGFARIKPMIMGFLMEKEVDALTKAYESEEKPRVYVLGGAKVDDSLKVAENVLRKEKADLILTGGLVGQLFTLAKGFDLGRENIKFLEKKGILKYVDWAEKILDEFYPYVRTPVDFAIDFKGERVEIDLLSDEKRLFDEYPILDIGSRTVEKYREILLKARIIVANGPMGVFEREEFAVGTIGVFKAIGESPAFSVIGGGHSIASIYKYNITGISHISTGGGAMLTFFAGEKLPVLEALKISYEKFSNLLS”, “soluble”.
